# Measurements as given in the RNAGym collection of RNA variant scans (doi:10.1073/pnas.2313332121).
# B1: TPR t1 (parent)
# chain: GACCAAUCUGCCCUCAGAGCUCGAGAACAUCUUCGGAUGCAGAGGAGGCAGGCUUCGGUGGCGCGAUAGCGCCAACGUCCUCAACCUCCAAUGCAUCCCACCACAUGAUGAUGCCUGAAGAGCCUUGGUUUUUUG
# Variants of: B1
# Test: polymerase ribozyme fitness, log enrichment relative to wild type (log ratio); higher = more active; in vitro selection for triplet polymerase activity
# How it was run: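 Streptavidin-bead capture of gel-excised extended constructs, followed by RT-PCR, closed a single triplicate in vitro selection round. That round began by annealing PCR-built, transcribed mutant libraries of each subunit of a heterodimeric triplet polymerase ribozyme with a biotinylated primer, the partner subunit and triplets, then incubating them frozen at −7 °C. After Illumina sequencing of inputs and outputs, genotypes needed ≥10 input reads and ≥1 read per output. Fitness is the base-2 logarithm of genotype enrichment over wild-type enrichment, using inverse-variance-weighted replicate averages.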
row,Variant,polymerase ribozyme fitness (log ratio)
1,C20G C115U G117C,-4.63
2,C22A G48U C56U,-4.88
3,U21G C123G,0.364
4,C20U A26G G71U U109A,-5.57
5,C20U C28G G45A G52U G69U C114U,-5.61
6,C22U A24U G57U C82U C115A,-6.34
7,C20G G63U C82G G113C G128U,-4.75
8,C22U U87A,-3.71
9,C22A G57C G69U C76A,-5.3
10,G23C A29C G48C U106G C114U,-8.24
11,C20G C123G U132G,-3.39
12,U21A G61A U96C,-0.247
13,C22U A41U C73U C82G A83U C124U,-4.15
14,C22A G57C C102A,-5.72
15,C22U A26G G52C A105C C124U,-4.45
16,C20U C72A A119U,-1.58
17,U21C C56U A84C C98A,-4.77
18,U21G U38C,-2.11
19,U21A C89U,-0.222
20,C20U C22A,-3.94
21,C20U C72U C98A,-5.82

row,Variant,polymerase ribozyme fitness (log ratio)
1,C20U A43G C53A G110U G120U,-6.4
2,C22U C70U G117C,-6.77
3,C20U A43C C82U C98U,-4.43
4,G23A C56U G110C,-5.74
5,C22A A43G A46U C72U G113C U116G,-6.81
6,C22G C72U,-3.13
7,C22G U96C,-3.36
8,C20U U96A,-2.25
9,U21G G93U A111G U112G,-2.45
10,C22U A46C C70U,-6.66
11,C20U U132C,-1.93
12,U21A C62U A119U,-0.733
13,C20U C53A G71A A91G,-5.09
14,U21C G48C A90U G117C G127C,-5.55
15,C22U A41G C72U C124U,-3.44
16,C20G U125G,-4.91
17,C20G G36A A121C,-3.32
18,G23A G63U,-7.02
19,U21A C62U,-0.421
20,C22G C82U,-3.57
21,C22U G69C C82A U112C A121C U132A,-3.46

row,Variant,polymerase ribozyme fitness (log ratio)
1,U21A C53G U54G U87A U133A,-3.43
2,C22U A37U A100C,-5.02
3,C20G G44U C56A A68G C98A C114U,-6.77
4,C22U G71U,-4.03
5,C20U A105U,-3.87
6,C22U A41C G60A C99U G110A U129G,-6.8
7,C20U G57A,-1.75
8,C22U G120C,-2.63
9,U21A C49G U92C C104U,-2.2
10,C22G G120A,-2.9
11,C22G G42C G61U C89U,-5.61
12,G23C G44U C88U A121G,-6.39
13,C22G G47C C104A,-4.76
14,U21A U92C U116C A119G,0.265
15,C22A C86G C114U,-5.23
16,G23A G61U,-4.38
17,C20U G42A A91C,-4.6
18,U21G U54C C56A G57C,-1.15
19,C22U A27C U87G,-5.65
20,C20U G77A,-1.35
21,U21G G42U U112A,0.673

row,Variant,polymerase ribozyme fitness (log ratio)
1,C22G C82G U96A,-3.98
2,C22A C49U C56A U78C G117U,-5.8
3,U21C C89A,-1.81
4,C20U C56A,-1.52
5,C22U G60C C104A,-5.43
6,C20U C53U U54A U125G,-2.55
7,C22U C62A U106G A108C A121G G122U,-7.34
8,C20U G61C C114U,-1.73
9,C22G G51A G61U U112G,-5.05
10,U21C A37U,0.0886
11,C20U C70U,-1.7
12,C20U G52A G60A,-2.6
13,C20U U33G U59A G107U G110C,-6.84
14,C20U C56A G71U A118U G120U,-2.27
15,C22A C40A G69A C86U C97G C99G U125A,-6.51
16,C20U C97G,-5.61
17,U21C G39C C56A,-1.44
18,C22A A46C,-5.4
19,U21C U38A C73A C123A,-1.55
20,C22U C73G C82A G120U U129A,-5.92
21,G23U A37G C94G,-6.35
